Ends that are not written are not given here.
Key:
human serum albumin [1] = biological target: T1, human serum albumin (human, UniProt P02768 25-609); assay: dot-blot, 10.0 nmoles peptide per filter on nitrocellulose, 0.3 µM 125I-HSA, 2 h
T1 construct: also called HSA
Method: (§1) Peptides were immobilized on nitrocellulose membranes and non-specific binding was blocked with bovine γ-globulin (2 mg/ml in PBS) for 1 h at 22° C. Membranes were washed 2× with PBS and incubated with ¹²⁵I-labeled HSA ([…]) for 2 h at 22° C. Membranes were then washed 4× with PBS containing 0.05% Tween-20 (PBST) and autoradiography was performed. In some experiments, the membranes were directly counted to determine the membrane-associated radioactivity.
(§2) Peptides were immobilized on nitrocellulose membranes and then incubated with 1 ml of 0.3 μM ¹²⁵I-HSA in PBS for 2 h. Other details were described in Example 1. Non-specific binding was determined by incubating membranes with ¹²⁵I-HSA in the absence of any peptides. Results are shown mean±S.E. for three separate experiments made in triplicate.

human serum albumin [2] = biological target: T1, human serum albumin; assay: dot-blot, 5.0 nmoles peptide per filter on nitrocellulose, 0.3 µM 125I-HSA, 2 h
Method: as §1, §2

rat serum albumin = biological target: T2, rat serum albumin (rat, UniProt P02770 25-608); assay: binding of albumin to the immobilised peptide; details not given
T2 construct: also called RSA
T2 sequence (P02770 25-608 limits assumed): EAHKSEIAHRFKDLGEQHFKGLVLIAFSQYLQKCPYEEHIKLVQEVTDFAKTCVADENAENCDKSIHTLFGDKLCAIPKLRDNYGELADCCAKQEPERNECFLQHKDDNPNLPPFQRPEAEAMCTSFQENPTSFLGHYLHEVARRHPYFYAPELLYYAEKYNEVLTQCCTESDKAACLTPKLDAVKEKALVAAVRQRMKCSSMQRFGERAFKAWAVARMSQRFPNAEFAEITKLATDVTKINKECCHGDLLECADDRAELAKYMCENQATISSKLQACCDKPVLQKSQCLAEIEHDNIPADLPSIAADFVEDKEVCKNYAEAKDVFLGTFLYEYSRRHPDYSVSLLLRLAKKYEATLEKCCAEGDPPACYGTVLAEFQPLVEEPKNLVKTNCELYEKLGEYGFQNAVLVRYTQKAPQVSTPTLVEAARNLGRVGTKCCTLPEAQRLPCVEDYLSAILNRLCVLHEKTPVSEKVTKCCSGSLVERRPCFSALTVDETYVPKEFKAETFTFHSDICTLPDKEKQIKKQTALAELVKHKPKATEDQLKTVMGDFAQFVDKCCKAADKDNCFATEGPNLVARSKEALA

human serum albumin [3] = biological target: T1, human serum albumin; assay: dot-blot, 1.0 nmoles peptide per filter on nitrocellulose, 0.3 µM 125I-HSA, 2 h
Method: as §1, §2

human serum albumin [4] = biological target: T1, human serum albumin; assay: dot-blot, 2.5 nmoles peptide per filter on nitrocellulose, 0.3 µM 125I-HSA, 2 h
Method: as §1, §2

human serum albumin [5] = biological target: T1, human serum albumin; assay: 125I-HSA dot-blot on peptide immobilised on nitrocellulose
Method: as §1, §2

human serum albumin [6] = biological target: T1, human serum albumin; assay: HSA-Sepharose affinity chromatography of human lung extract, elution at pH 4.0, SDS-PAGE, MALDI-MS
Method: Protein purification and MALDI-MS: Human lung tissue (180 g) was washed, minced, and homogenized with 20 volumes of buffer A (20 mM Hepes/Tris/0.15 M NaCl/0.1 mM phenylmethylsufonylfluoride [PMSF]/30 pM benzamidine [BM], pH 7.4). The homogenate was centrifuged at 1000×g for 10 min and the supernatant was centrifuged at 100,000×g for 60 min. The pellet obtained was solubilized using 2.5% sodium cholate and 4 M urea (Tiruppathi et al., Proc. Natl. Acad Sci. USA, 93:250-254 (1996)). The solubilized extract was concentrated by ethanol precipitation and re-extracted with Triton X- 100 (Tiruppathi et al., Proc. Natl. Acad Sci. USA, 93:250-254 (1996)). The Triton X-100 concentration in the extract was adjusted to 0.2% and applied on HSAsepharose column (1×10 cm) pre-equilibrated with buffer-B (10 MM Tris-HCl, 0.5 MM EDTA, pH 7.4 containing 0.1 mM PMSF, 30 [M BM, and 0.2% Triton X-100). The column was washed and bound proteins were eluted with 20 ml of 0.1 M citrate buffer pH 4.0 containing 0.2% Triton X- 100. The proteins eluted were separated on SDS-PAGE, stained with Coomassie Brilliant Blue R-250 (CBBR-250) (FIG. 1A). The protein bands excised were digested with trypsin and peptides were analyzed using MALDI-MS at Yale University Biotechnology Resource Laboratory (New Haven, Conn.). The peptide masses were compared with known sequence using Profound search analysis on OWL database. […]

| Binder | 125I-HSA bound (pmoles/filter) (human serum albumin [1]) | 125I-HSA bound (pmoles/filter) (human serum albumin [2]) | binding result (rat serum albumin) | 125I-HSA bound (pmoles/filter) (human serum albumin [3]) | 125I-HSA bound (pmoles/filter) (human serum albumin [4]) | binding result (human serum albumin [5]) | binding result (human serum albumin [6]) |
| --- | --- | --- | --- | --- | --- | --- | --- |
| MPO-WT-peptide (MPO-HC sequence 425-454) (C-terminal amide, Immobilised on nitrocellulose in the dot-blot; also called ADS) peptide: not shown | 6.55 pmoles/filter | 2.93 pmoles/filter | binds | 0.31 pmoles/filter | 1.45 pmoles/filter |  |  |
| GLATELGSLNPGWDGEGLYQEAGGIVGAMV-NH2 [MPO-MT-peptide] | 0.19 pmoles/filter | 0.14 pmoles/filter |  | 0.01 pmoles/filter | 0.11 pmoles/filter | no binding |  |
| MPO-HC (60 kDa protein isolated from human lung tissue) (enzyme, UniProt P05164 279-745, looked up, domain: heavy chain (HC); also called MPO heavy chain) VNCETSCVQQPPCFPLKIPPNDPRIKNQADCIPFFRSCPACPGSNITIRNQINALTSFVDASMVYGSEEPLARNLRNMSNQLGLLAVNQRFQDNGRALLPFDNLHDDPCLLTNRSARIPCFLAGDTRSSEMPELTSMHTLLLREHNRLATELKSLNPRWDGERLYQEARKIVGAMVQIITYRDYLPLVLGPTAMRKYLPTYRSYNDSVDPRIANVFTNAFRYGHTLIQPFMFRLDNRYQPMEPNPRVPLSRVFFASWRVVLEGGIDPILRGLMATPAKLNRQNQIAVDEIRERLFEQVMRIGLDLPALNMQRSRDHGLPGYNAWRRFCGLPQPETVGQLGTVLRNLKLARKLMEQYGTPNNIDIWMGGVSEPLKRKGRVGPLLACIIGTQFRKLRDGDRFWWENEGVFSMQQRQALAQISLPRIICDNTGITTVSKNNIFMSNSYPRDFVNCSTLPALNLASWREAS |  |  |  |  |  |  | binds |
| EARKIV-NH2 (Synthetic hexapeptide from MPO-HC; also called EARKIV motif) [EARKIV peptide] | 0.11 pmoles/filter | 0.08 pmoles/filter |  | 0.05 pmoles/filter | 0.06 pmoles/filter | no binding |  |
